Publication PMC6778148 (2019)

Tests used:
[1] = biological target: T1, PSD-95-12, purified tandem PDZ domains of PSD-95 (rat, UniProt P31016 61-249); experiment: ITC
[2] = biological target: SAP97-12, purified tandem PDZ domains of SAP97 (rat, UniProt Q62696 220-408); experiment: competition against divalent ligand
[3] = biological target: PSD-93-12, purified tandem PDZ domains of PSD-93 (rat, UniProt Q63622 93-282); experiment: competition against divalent ligand
[4] = biological target: T2, SAP102-12, purified tandem PDZ domains of SAP102 (rat, UniProt Q62936 145-333); experiment: competition against divalent ligand
T2 chain: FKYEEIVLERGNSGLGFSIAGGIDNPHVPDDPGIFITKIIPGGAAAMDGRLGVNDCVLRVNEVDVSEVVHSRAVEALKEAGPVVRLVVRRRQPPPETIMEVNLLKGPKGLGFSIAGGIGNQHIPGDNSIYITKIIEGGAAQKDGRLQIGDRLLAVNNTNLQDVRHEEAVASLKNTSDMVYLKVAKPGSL

[5] = biological target: T1, PSD-95-12, purified tandem PDZ domains …
[6] = biological target: T1, PSD-95-12, purified tandem PDZ domains …; experiment: SPR

T1 sequence (P31016 61-249): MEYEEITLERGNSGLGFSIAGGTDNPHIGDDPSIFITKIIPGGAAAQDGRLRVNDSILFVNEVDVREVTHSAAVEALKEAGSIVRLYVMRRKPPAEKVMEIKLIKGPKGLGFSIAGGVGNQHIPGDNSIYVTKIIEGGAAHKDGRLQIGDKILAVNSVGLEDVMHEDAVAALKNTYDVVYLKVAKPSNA
Chain of PSD-93-12, purified tandem PDZ domains of PSD-93 (Q63622 93-282): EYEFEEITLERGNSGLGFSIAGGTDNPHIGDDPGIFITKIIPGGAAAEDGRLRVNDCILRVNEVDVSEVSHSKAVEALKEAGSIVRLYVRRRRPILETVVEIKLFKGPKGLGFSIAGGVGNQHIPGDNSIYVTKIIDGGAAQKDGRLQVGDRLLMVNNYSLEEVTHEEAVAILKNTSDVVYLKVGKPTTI
Chain of SAP97-12, purified tandem PDZ domains of SAP97 (Q62696 220-408): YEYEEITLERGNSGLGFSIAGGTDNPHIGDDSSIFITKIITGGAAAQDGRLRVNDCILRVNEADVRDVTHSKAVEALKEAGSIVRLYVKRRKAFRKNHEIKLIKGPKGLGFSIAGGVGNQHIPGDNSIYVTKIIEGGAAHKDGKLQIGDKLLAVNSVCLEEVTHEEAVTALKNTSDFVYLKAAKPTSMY

B1: Xph15, evolved ^10FN3 domain (recombinant) (designed binder)
chain: SSVSSVPTKLEVVAATPTSLLISWDAGPRNVSYYRITYGETGGNSPVQEFTVPGSSSTATISGLSPGVDYTITVYASGHVSTLMTPISINYRT
Q: With B1 as the binder, how does the Kd [1] read?
A: Its Kd is 2200 nM.

B2: Xph18, evolved ^10FN3 domain (recombinant) (designed binder)
chain: SSVSSVPTKLEVVAATPTSLLISWDAHSRMAWVNYYRITYGETGGNSPVQEFTVPGSSSTATISGLSPGVDYTITVYANGGGFRRGMAPISINYRT
Q: For B2, which Kd [1] is on record?
A: The Kd was 820 nM.

B3: Xph20-ETWV (designed binder)
chain: MASHHHHHHHHHHENLYFQSGSGSSVSSVPTKLEVVAATPTSLLISWDAVAKNVKVGYYRITYGETGGNSPVQEFTVPGSSSTATISGLKPGVDYTITVYANGVLSKMVLPISINYRTLEGGSGGSGGSGGSGGSGGSGGSGGSGGSGGSGGSGGSGTETWV
Q: Which Ki [2] does the source give for B3 here?
A: Its Ki is 900 nM.

Q: What about the Ki [3] of the same binder?
A: The Ki was 261 nM.

Q: And the Ki [4]?
A: The Ki was 1440 nM.

Q: What about the Ki [5] of the same binder?
A: The Ki was 36 nM.

B4: biotinylated Xph20 (designed binder)
chain: SSVSSVPTKLEVVAATPTSLLISWDAVAKNVKVGYYRITYGETGGNSPVQEFTVPGSSSTATISGLKPGVDYTITVYANGVLSKMVLPISINYRT
modifications: biotin on the biotin acceptor peptide
Q: For B4, which koff [6] is on record?
A: Its koff is 0.068 s⁻¹.
